In the supplement of paper PMC9112550, “Optimization of the antimicrobial peptide Bac7 by deep mutational scanning” (BMC Biology, 2022):

system: Escherichia coli TOP10; assay: shrunken log2 fold change of peptide-encoding DNA abundance (4.5 h post-induction vs induction); higher = less antimicrobial activity (less host growth inhibition); details: time post-induction: 4.5 h; library: site-saturation at positions 5, 18, 19, 20
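Further: peptides expressed intracellularly from a pBAD plasmid library in pooled LB shake-flask culture, induced with 0.3% L-arabinose, DNA abundance read by NGS, three biological replicates, DESeq2 with apeglm shrinkage.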

For RRIRLRPPRLPRPRPRPKREPRP, which “shrunken log2 fold change” value is on record?
The value was 0.0937.

How did the “shrunken log2 fold change” value turn out when RRIRFRPPRLPRPRPRPKDWPRP was run?
The value was 0.233.

How did the “shrunken log2 fold change” value turn out when RRIRDRPPRLPRPRPRPTIFPRP was run?
Its value is 0.0643.

For RRIRWRPPRLPRPRPRPYMDPRP, which “shrunken log2 fold change” value is on record?
Its value is -0.551.

RRIRPRPPRLPRPRPRPWWKPRP was tested. Which “shrunken log2 fold change” value did it give?
The value was -0.0424.

With RRIRFRPPRLPRPRPRPQTIPRP as the sequence, how does the “shrunken log2 fold change” value read?
Its value is -0.485.

Which “shrunken log2 fold change” value does the source give for RRIRQRPPRLPRPRPRPNNKPRP here?
The value was -0.721.

Which “shrunken log2 fold change” value does the source give for RRIRRRPPRLPRPRPRPAGGPRP here?
The value was 0.327.

With RRIRTRPPRLPRPRPRPLFPPRP as the sequence, how does the “shrunken log2 fold change” value read?
The value was -0.415.

For RRIRPRPPRLPRPRPRPPGIPRP, which “shrunken log2 fold change” value is on record?
Its value is 0.151.

Which “shrunken log2 fold change” value does the source give for RRIRTRPPRLPRPRPRPRCPPRP here?
The value was 0.0716.

Which “shrunken log2 fold change” value does the source give for RRIRSRPPRLPRPRPRPYLWPRP here?
The value was -0.0115.

How did the “shrunken log2 fold change” value turn out when RRIRIRPPRLPRPRPRPFEQPRP was run?
The value was -0.0348.

RRIRPRPPRLPRPRPRPSPHPRP was tested. Which “shrunken log2 fold change” value did it give?
The value was -0.367.

For RRIRERPPRLPRPRPRPCEKPRP, which “shrunken log2 fold change” value is on record?
Its value is 0.0102.

Which “shrunken log2 fold change” value does the source give for RRIRPRPPRLPRPRPRPPCQPRP here?
The value was 0.268.

Which “shrunken log2 fold change” value does the source give for RRIRKRPPRLPRPRPRPHSSPRP here?
Its value is 0.0945.

Which “shrunken log2 fold change” value does the source give for RRIRPRPPRLPRPRPRPCRKPRP here?
The value was -0.134.

Which “shrunken log2 fold change” value does the source give for RRIRFRPPRLPRPRPRPHVGPRP here?
Its value is -0.224.

RRIRKRPPRLPRPRPRPNYDPRP was tested. Which “shrunken log2 fold change” value did it give?
Its value is -0.359.

RRIRVRPPRLPRPRPRPHFWPRP was tested. Which “shrunken log2 fold change” value did it give?
The value was -0.158.

For RRIRIRPPRLPRPRPRPIRQPRP, which “shrunken log2 fold change” value is on record?
Its value is 0.143.

For RRIRFRPPRLPRPRPRPEGQPRP, which “shrunken log2 fold change” value is on record?
The value was 0.15.

Which “shrunken log2 fold change” value does the source give for RRIRWRPPRLPRPRPRPKIPPRP here?
Its value is 0.0948.

Which “shrunken log2 fold change” value does the source give for RRIRHRPPRLPRPRPRPEYFPRP here?
The value was -0.0339.

RRIRARPPRLPRPRPRPCYIPRP was tested. Which “shrunken log2 fold change” value did it give?
Its value is -0.607.

How did the “shrunken log2 fold change” value turn out when RRIRNRPPRLPRPRPRPSMLPRP was run?
The value was -0.145.

For RRIRGRPPRLPRPRPRPTWMPRP, which “shrunken log2 fold change” value is on record?
Its value is 0.599.

Which “shrunken log2 fold change” value does the source give for RRIRLRPPRLPRPRPRPRTYPRP here?
The value was -0.319.

RRIRPRPPRLPRPRPRPMFGPRP was tested. Which “shrunken log2 fold change” value did it give?
The value was -0.253.

For RRIRIRPPRLPRPRPRPFYVPRP, which “shrunken log2 fold change” value is on record?
The value was -1.11.

With RRIRPRPPRLPRPRPRPPYEPRP as the sequence, how does the “shrunken log2 fold change” value read?
Its value is -0.145.

With RRIRCRPPRLPRPRPRPRLQPRP as the sequence, how does the “shrunken log2 fold change” value read?
Its value is 0.425.

For RRIRCRPPRLPRPRPRPAIGPRP, which “shrunken log2 fold change” value is on record?
The value was -0.135.

For RRIRKRPPRLPRPRPRPDKCPRP, which “shrunken log2 fold change” value is on record?
The value was -0.142.

With RRIRFRPPRLPRPRPRPHAPPRP as the sequence, how does the “shrunken log2 fold change” value read?
The value was -0.062.

How did the “shrunken log2 fold change” value turn out when RRIRCRPPRLPRPRPRPTTKPRP was run?
Its value is -0.0602.

With RRIRDRPPRLPRPRPRPGHNPRP as the sequence, how does the “shrunken log2 fold change” value read?
The value was -0.0961.

For RRIRDRPPRLPRPRPRPDQIPRP, which “shrunken log2 fold change” value is on record?
Its value is -0.0336.

For RRIRSRPPRLPRPRPRPREYPRP, which “shrunken log2 fold change” value is on record?
Its value is -0.0557.

Which “shrunken log2 fold change” value does the source give for RRIRWRPPRLPRPRPRPDHIPRP here?
Its value is -0.0546.

For RRIRVRPPRLPRPRPRPCGTPRP, which “shrunken log2 fold change” value is on record?
Its value is -0.317.

With RRIRERPPRLPRPRPRPACEPRP as the sequence, how does the “shrunken log2 fold change” value read?
Its value is -0.112.

For RRIRKRPPRLPRPRPRPIVWPRP, which “shrunken log2 fold change” value is on record?
Its value is 0.527.

With RRIRSRPPRLPRPRPRPPGGPRP as the sequence, how does the “shrunken log2 fold change” value read?
The value was 0.724.

With RRIRLRPPRLPRPRPRPDVAPRP as the sequence, how does the “shrunken log2 fold change” value read?
Its value is 0.093.

RRIRMRPPRLPRPRPRPLAYPRP was tested. Which “shrunken log2 fold change” value did it give?
Its value is -0.093.

How did the “shrunken log2 fold change” value turn out when RRIRVRPPRLPRPRPRPEAQPRP was run?
The value was 0.112.

Which “shrunken log2 fold change” value does the source give for RRIRQRPPRLPRPRPRPSANPRP here?
Its value is 0.0611.

With RRIRRRPPRLPRPRPRPKMGPRP as the sequence, how does the “shrunken log2 fold change” value read?
The value was -0.0227.

How did the “shrunken log2 fold change” value turn out when RRIRPRPPRLPRPRPRPSNVPRP was run?
The value was -0.463.

How did the “shrunken log2 fold change” value turn out when RRIRMRPPRLPRPRPRPWREPRP was run?
The value was 0.189.

How did the “shrunken log2 fold change” value turn out when RRIRERPPRLPRPRPRPYEHPRP was run?
The value was -0.278.

How did the “shrunken log2 fold change” value turn out when RRIRGRPPRLPRPRPRPDCDPRP was run?
Its value is 0.841.

RRIRMRPPRLPRPRPRPSPVPRP was tested. Which “shrunken log2 fold change” value did it give?
The value was 0.384.

Which “shrunken log2 fold change” value does the source give for RRIRSRPPRLPRPRPRPKCNPRP here?
Its value is -0.174.

Which “shrunken log2 fold change” value does the source give for RRIRERPPRLPRPRPRPKYLPRP here?
The value was -0.77.

RRIRDRPPRLPRPRPRPLIGPRP was tested. Which “shrunken log2 fold change” value did it give?
Its value is 0.239.

With RRIRRRPPRLPRPRPRPTRVPRP as the sequence, how does the “shrunken log2 fold change” value read?
The value was 0.952.

Which “shrunken log2 fold change” value does the source give for RRIRPRPPRLPRPRPRPCFYPRP here?
Its value is -0.242.

How did the “shrunken log2 fold change” value turn out when RRIRYRPPRLPRPRPRPWGGPRP was run?
The value was 0.011.

Which “shrunken log2 fold change” value does the source give for RRIRFRPPRLPRPRPRPDNSPRP here?
Its value is -0.726.

RRIRDRPPRLPRPRPRPFLEPRP was tested. Which “shrunken log2 fold change” value did it give?
Its value is -0.192.

RRIRHRPPRLPRPRPRPKLCPRP was tested. Which “shrunken log2 fold change” value did it give?
Its value is -0.114.

RRIRRRPPRLPRPRPRPDNDPRP was tested. Which “shrunken log2 fold change” value did it give?
The value was 0.104.

For RRIRWRPPRLPRPRPRPCPWPRP, which “shrunken log2 fold change” value is on record?
Its value is -0.0137.

Which “shrunken log2 fold change” value does the source give for RRIRDRPPRLPRPRPRPDTYPRP here?
Its value is -0.0814.

Which “shrunken log2 fold change” value does the source give for RRIRGRPPRLPRPRPRPGGVPRP here?
The value was 1.06.

Which “shrunken log2 fold change” value does the source give for RRIRARPPRLPRPRPRPSVVPRP here?
The value was -0.0244.

Which “shrunken log2 fold change” value does the source give for RRIRKRPPRLPRPRPRPMICPRP here?
Its value is 0.0303.

How did the “shrunken log2 fold change” value turn out when RRIRWRPPRLPRPRPRPHMVPRP was run?
Its value is -0.069.

With RRIRYRPPRLPRPRPRPRDAPRP as the sequence, how does the “shrunken log2 fold change” value read?
The value was -0.103.

Which “shrunken log2 fold change” value does the source give for RRIRYRPPRLPRPRPRPQGHPRP here?
The value was -0.17.

RRIRIRPPRLPRPRPRPGHPPRP was tested. Which “shrunken log2 fold change” value did it give?
The value was -0.212.

With RRIRIRPPRLPRPRPRPKTDPRP as the sequence, how does the “shrunken log2 fold change” value read?
Its value is -0.292.
